From PMC6079037, “Hydra Mesoglea Proteome Identifies Thrombospondin as a Conserved Component Active in Head Organizer Restriction” (Scientific Reports, 2018)
Ends that are not written are not given here.

B1: human TSP1.V5 (thrombospondin-1 with V5 tag) (natural protein)
chain: not shown
notes: human thrombospondin-1 (TSP1); calculated monomer molecular weight of TSP1.V5 132.3 kDa
B2: HsTSP1cc, synthetic peptide of the trimerizing coiled-coil domain of human TSP1 (residues 275-314 of TSP1) (peptide)
peptide: Ac-GDELSSMVLELRGLRTIVTTLQDSIRKVTEENKELANELRRGW
notes: added residue before the TSP1 stretch; human thrombospondin-1 (TSP1), coiled-coil domain, residues 275-314; added residues after the TSP1 stretch (the Trp is used to measure concentration at 280 nm); 43-mer; Made on Rink amide resin, so the C-terminus is probably an amide (surmised); source: synthetic peptide (Fmoc solid phase on Rink amide resin), purified by RP-HPLC

What was measured:
[1] = target: the molecule itself; assay: non-reducing SDS-PAGE and immunoblot; V5-tagged proteins from conditioned media of transfected COS7 cells, collected on Talon resin, boiled in SDS sample buffer without DTT; 7% SDS-polyacrylamide gels; V5 antibody blot
[2] = target: the molecule itself; assay: AUC; sedimentation equilibrium; HsTSP1cc 50 uM in PBS, 20 °C, 20,000-50,000 rpm; fitted to a single, ideal species model

Protein | stoichiometry N [1] | stoichiometry N [2]
B1 | 3 | 
B2 |  | 2.96 x monomer mass
